The source of these data is US20090143241A1.

For the assay, the target named is ClpXP protease (E. coli ClpX6 with ClpP14) (E. coli) (UniProt P0A6H1). As to the kind of experiment: cell-based or functional assay.
Sequence of ClpXP protease (E. coli ClpX6 with ClpP14) (E. coli) (P0A6H1 whole entry, chain 1 of 2): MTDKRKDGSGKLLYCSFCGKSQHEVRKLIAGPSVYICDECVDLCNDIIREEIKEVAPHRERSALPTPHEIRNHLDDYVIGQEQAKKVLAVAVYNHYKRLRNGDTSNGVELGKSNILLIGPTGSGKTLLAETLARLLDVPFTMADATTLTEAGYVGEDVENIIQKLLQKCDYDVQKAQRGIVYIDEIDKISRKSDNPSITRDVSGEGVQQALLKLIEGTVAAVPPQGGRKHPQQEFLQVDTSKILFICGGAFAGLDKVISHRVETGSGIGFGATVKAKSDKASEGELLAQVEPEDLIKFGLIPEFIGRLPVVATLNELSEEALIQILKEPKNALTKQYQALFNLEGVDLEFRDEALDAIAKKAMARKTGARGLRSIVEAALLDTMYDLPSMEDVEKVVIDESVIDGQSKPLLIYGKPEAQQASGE
Sequence of ClpXP protease (E. coli ClpX6 with ClpP14) (E. coli) (P0A6G7 15-207, chain 2 of 2, further chain): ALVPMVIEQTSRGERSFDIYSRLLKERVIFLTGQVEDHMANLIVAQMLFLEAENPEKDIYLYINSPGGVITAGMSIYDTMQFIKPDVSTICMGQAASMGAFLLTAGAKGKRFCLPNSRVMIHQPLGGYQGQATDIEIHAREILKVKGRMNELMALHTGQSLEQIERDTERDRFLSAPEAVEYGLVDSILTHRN

Regarding “λ O protein, N-terminally His6-tagged (from UniProt P03688 1-333)”, the half-life of λ O with ClpXP, no inhibitor worked out at 35 min.
